Holding throughout (type): cell-based
Common to all, as to conditions: 100 μg/mL for 18 hours

Assay [1] concerns TCM^Null cells. In words: CXCL8 levels in cell supernatants, TCM^Null cells. From the text: (§1) Three HEK 293 cell lines, TCM^Null (TLR4^Null, CD14^Null, MD2^Null), TLR4^Hi (TLR4^Hi, CD14^Null, MD2^Null) and TCM^hi (TLR4^Hi, CD14^Hi, MD2^Hi; InvivoGen, San Diego, Calif.), were used. In some experiments hTERT immortalized normal human bronchial epithelial cells (HBECs) were used, as previously described (17).
(§2) Measurement of CXCL8 levels in cell supernatants. TCM^Null, TLR4^Hi, TCM^Hi, TLR4^Hi-ST, or TLR4^Hi-MD2 cells were stimulated with RWPE, Bermuda grass, rye grass, pigweed, mountain cedar, cat dander, LPS, or Amb a 1 at 100 μg/mL for 18 hours. In some experiments HBECs, HBECs transfected with siRNA against MD2, or sham-transfected HBECs were starved for 24 hours and stimulated with RWPE, Bermuda grass, rye grass, timothy grass, pigweed, Russian thistle, cottonwood, walnut, and cat dander allergenic extracts. Cell supernatants were assayed for CXCL8.

Assay [2] relates to TLR4^Hi cells. In words: CXCL8 levels in cell supernatants, TLR4^Hi cells.
Source text: as §1, §2

In assay [3] the test system is TCM^Hi cells. In words: CXCL8 levels in cell supernatants, TCM^Hi cells.
Source text: as §1, §2

B1: Amb a 1: major allergen in RWPE, a single protein (protein)
chain: AEDLQEILPVNETRRLTTSGAYNIIDGCWRGKADWAENRKALADCAQGFGKGTVGGKDGDIYTVTSELDDDVANPKEGTLRFGAAQNRPLWIIFERDMVIRLDKEMVVNSDKTIDGRGAKVEIINAGFTLNGVKNVIIHNINMHDVKVNPGGLIKSNDGPAAPRAGSDGDAISISGSSQIWIDHCSLSKSVDGLVDAKLGTTRLTVSNSLFTQHQFVLLFGAGDENIEDRGMLATVAFNTFTDNVDQRMPRCRHGFFQVVNNNYDKWGSYAIGGSASPTILSQGNRFCAPDERSKKNVLGRHGEAAAESMKWNWRTNKDVLENGAIFVASGVDPVLTPEQSAGMIPAEPGESALSLTSSAGVLSCQPGAPC
For the molecule B1, the “CXCL8 secretion from TCM^Null cells” value in assay [1] is “only in TCM^Hi cells”. Also, the “CXCL8 secretion from TLR4^Hi cells” value in assay [2] is “only in TCM^Hi cells”. The “CXCL8 secretion from TCM^Hi cells” value in assay [3] is “induced CXCL8 secretion”.

The values are drawn from patent US20160311911A1, “METHODS FOR TREATING ALLERGIC AIRWAY INFLAMMATION” (priority 2015, published 2016).
